Test results as given in publication PMC6768434.

Substrate: CC(NCCCC[C@H](N)C(=O)O)C(=O)O
Assay: purified protein
Conditions: 50 mM Tris pH 8.0, 5 μM FAD, 25 μM enzyme, 37 °C, CEL 1-13 mM

B1: MnmC (Escherichia coli K-12) (protein)
chain: MKHYSIQPANLEFNAEGTPVSRDFDDVYFSNDNGLEETRYVFLGGNQLEVRFPEHPHPLFVVAESGFGTGLNFLTLWQAFDQFREAHPQAQLQRLHFISFEKFPLTRADLALAHQHWPELAPWAEQLQAQWPMPLPGCHRLLLDEGRVTLDLWFGDINELTSQLDDSLNQKVDAWFLDGFAPAKNPDMWTQNLFNAMARLARPGGTLATFTSAGFVRRGLQDAGFTMQKRKGFGRKREMLCGVMEQTLPLPCSAPWFNRTGSSKREAAIIGGGIASALLSLALLRRGWQVTLYCADEAPALGASGNRQGALYPLLSKHDEALNRFFSNAFTFARRFYDQLPVKFDHDWCGVTQLGWDEKSQHKIAQMLSMDLPAELAVAVEANAVEQITGVATNCSGITYPQGGWLCPAELTRNVLELAQQQGLQIYYQYQLQNLSRKDDCWLLNFAGDQQATHSVVVLANGHQISRFSQTSTLPVYSVAGQVSHIPTTPELAELKQVLCYDGYLTPQNPANQHHCIGASYHRGSEDTAYSEDDQQQNRQRLIDCFPQAQWAKEVDVSDKEARCGVRCATRDHLPMVGNVPDYEATLVEYASLAEQKDEAVSAPVFDDLFMFAALGSRGLCSAPLCAEILAAQMSDEPIPMDASTLAALNPNRLWVRKLLKGKAVKAG
Km: 5.2 ± 1.3 mM
kcat: 0.000667 ± 6.67e-05 s⁻¹
kcat/Km: 0.133 ± 0.0167 M⁻¹ s⁻¹

B2: C-MnmC (Escherichia coli K-12) (protein)
chain: PCSAPWFNRTGSSKREAAIIGGGIASALLSLALLRRGWQVTLYCADEAPALGASGNRQGALYPLLSKHDEALNRFFSNAFTFARRFYDQLPVKFDHDWCGVTQLGWDEKSQHKIAQMLSMDLPAELAVAVEANAVEQITGVATNCSGITYPQGGWLCPAELTRNVLELAQQQGLQIYYQYQLQNLSRKDDCWLLNFAGDQQATHSVVVLANGHQISRFSQTSTLPVYSVAGQVSHIPTTPELAELKQVLCYDGYLTPQNPANQHHCIGASYHRGSEDTAYSEDDQQQNRQRLIDCFPQAQWAKEVDVSDKEARCGVRCATRDHLPMVGNVPDYEATLVEYASLAEQKDEAVSAPVFDDLFMFAALGSRGLCSAPLCAEILAAQMSDEPIPMDASTLAALNPNRLWVRKLLKGKAVKAG
Km: 4.3 ± 0.6 mM
kcat: 0.003 ± 0.00015 s⁻¹
kcat/Km: 0.7 ± 0.1 M⁻¹ s⁻¹
